Source: IntAct's records for PubMed 16418270

B1: Ribonuclease P protein component 2 (Pyrococcus furiosus), Q8U151 (parent)
chain: MSERPKTLPPTLRDKKRYIAFKVISENQFNKDEIKEAIWNACLRTLGELGTAKAKPWLIKFDETTQTGIIRCDRNHVYDVIFSLTLVSDINGNKAIIKVLGVSGTIKRLKRKFLSQFGWR
partner: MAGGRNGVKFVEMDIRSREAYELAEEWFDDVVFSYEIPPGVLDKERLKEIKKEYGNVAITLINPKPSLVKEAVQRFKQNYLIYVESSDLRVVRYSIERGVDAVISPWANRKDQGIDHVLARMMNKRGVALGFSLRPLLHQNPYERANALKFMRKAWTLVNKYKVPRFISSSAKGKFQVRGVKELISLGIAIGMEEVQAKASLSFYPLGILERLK

Variants of: B1
Conditions: with rnp3_pyrfu rnp3, Q8TZS0

| effect of a mutation on the interaction | Variant |
| --- | --- |
| decreasing interaction | C72S |
